What all share (conditions): protein: recombinant; (Ni-NTA; pET28a); blunt
One series addresses PARP1 dWGR (human, UniProt P09874 1-517+=ALAGSGSGSGSGSGLALLLAGSGSGSGSGAAL+655-1014, internal_change). In words: stopped-flow fluorescence anisotropy; k1 similar to WT; Scheme 2 dissociation, no ternary complex; 50 mM Tris-HCl pH 7.5, 50 mM NaCl, 1 mM MgCl2, 0.1 mM EDTA, 0.01% IGEPAL, 20 C. In general terms: Polarisation of emitted light reports the rotation of a fluorescent probe.

The next series has as its target PARP1 WT (human, UniProt P09874 1-1014). Briefly: stopped-flow fluorescence anisotropy; kinetic Kd; k1 3.1 nM-1 s-1, k-1 <10 s-1; 50 mM Tris-HCl pH 7.5, 50 mM NaCl, 1 mM MgCl2, 0.1 mM EDTA, 0.01% IGEPAL, 20 C.
Another series has as its target PARP1 dZn3 (human, UniProt P09874 1-215+=ALAGSGSGSGSGSGLALLLAGSGSGSGSGAAL+367-1014, internal_change). In words: stopped-flow fluorescence anisotropy; k1 similar to WT; Scheme 3 dissociation; 50 mM Tris-HCl pH 7.5, 50 mM NaCl, 1 mM MgCl2, 0.1 mM EDTA, 0.01% IGEPAL, 20 C.
The next series has as its target PARP1 dZn1 (human, UniProt P09874 97-1014, del2-96). Described as above.
Another series deals with PARP1 dZn2 (human, UniProt P09874 1-96+=ALAGSGSGSGSGSGLALLLAGSGSGSGSGAAL+207-1014, internal_change). The series is described as above.
Sequence of PARP1 dZn2 (P09874 other isoform, or with tags, fused parts or gaps): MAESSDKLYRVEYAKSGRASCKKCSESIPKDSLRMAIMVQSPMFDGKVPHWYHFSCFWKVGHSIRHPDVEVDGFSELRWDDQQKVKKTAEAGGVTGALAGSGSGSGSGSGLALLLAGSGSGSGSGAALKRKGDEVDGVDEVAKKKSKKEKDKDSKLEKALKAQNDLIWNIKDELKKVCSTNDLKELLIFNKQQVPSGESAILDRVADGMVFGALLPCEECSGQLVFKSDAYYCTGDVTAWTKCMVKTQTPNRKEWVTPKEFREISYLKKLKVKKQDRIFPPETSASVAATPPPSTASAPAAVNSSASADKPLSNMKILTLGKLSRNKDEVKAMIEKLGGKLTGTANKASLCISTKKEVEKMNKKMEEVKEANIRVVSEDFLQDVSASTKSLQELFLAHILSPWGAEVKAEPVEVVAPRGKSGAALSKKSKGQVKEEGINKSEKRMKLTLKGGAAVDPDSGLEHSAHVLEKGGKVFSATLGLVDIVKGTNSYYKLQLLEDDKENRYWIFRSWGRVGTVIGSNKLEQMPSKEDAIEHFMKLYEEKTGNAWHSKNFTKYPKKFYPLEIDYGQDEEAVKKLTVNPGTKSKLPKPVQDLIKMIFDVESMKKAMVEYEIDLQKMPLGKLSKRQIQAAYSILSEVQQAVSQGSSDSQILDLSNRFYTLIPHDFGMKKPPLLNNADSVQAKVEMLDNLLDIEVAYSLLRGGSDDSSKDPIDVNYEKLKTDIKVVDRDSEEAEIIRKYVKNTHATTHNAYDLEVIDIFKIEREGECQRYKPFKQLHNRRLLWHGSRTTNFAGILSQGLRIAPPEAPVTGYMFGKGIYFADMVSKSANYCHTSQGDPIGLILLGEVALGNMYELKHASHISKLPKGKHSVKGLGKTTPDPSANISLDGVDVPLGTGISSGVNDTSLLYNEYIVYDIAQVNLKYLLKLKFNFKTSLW

Sequence of PARP1 dWGR (P09874 other isoform, or with tags, fused parts or gaps): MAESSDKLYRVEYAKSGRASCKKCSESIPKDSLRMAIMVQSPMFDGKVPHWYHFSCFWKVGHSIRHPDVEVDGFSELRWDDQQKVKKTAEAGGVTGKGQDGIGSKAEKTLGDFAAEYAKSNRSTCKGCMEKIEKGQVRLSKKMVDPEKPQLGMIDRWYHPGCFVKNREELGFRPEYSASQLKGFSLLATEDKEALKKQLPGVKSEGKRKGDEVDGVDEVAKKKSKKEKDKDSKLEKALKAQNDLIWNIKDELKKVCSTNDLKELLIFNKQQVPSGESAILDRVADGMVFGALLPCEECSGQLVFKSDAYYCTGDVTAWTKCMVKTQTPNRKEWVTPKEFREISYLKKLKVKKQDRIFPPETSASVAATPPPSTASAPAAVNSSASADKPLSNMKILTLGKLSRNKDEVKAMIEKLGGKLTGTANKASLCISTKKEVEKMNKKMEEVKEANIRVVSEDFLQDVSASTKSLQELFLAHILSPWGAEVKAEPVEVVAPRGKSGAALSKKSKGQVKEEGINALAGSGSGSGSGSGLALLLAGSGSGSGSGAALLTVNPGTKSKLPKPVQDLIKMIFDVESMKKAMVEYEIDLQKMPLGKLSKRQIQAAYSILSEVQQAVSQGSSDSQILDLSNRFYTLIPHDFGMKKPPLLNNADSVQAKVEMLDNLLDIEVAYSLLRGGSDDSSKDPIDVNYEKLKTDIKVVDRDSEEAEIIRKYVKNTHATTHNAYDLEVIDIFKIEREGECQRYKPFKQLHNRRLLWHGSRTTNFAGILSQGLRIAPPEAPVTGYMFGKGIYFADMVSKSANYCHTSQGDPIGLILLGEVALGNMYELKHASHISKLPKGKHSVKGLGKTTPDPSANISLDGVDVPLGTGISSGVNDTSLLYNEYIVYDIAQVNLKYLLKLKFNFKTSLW
Sequence of PARP1 dZn3 (P09874 other isoform, or with tags, fused parts or gaps): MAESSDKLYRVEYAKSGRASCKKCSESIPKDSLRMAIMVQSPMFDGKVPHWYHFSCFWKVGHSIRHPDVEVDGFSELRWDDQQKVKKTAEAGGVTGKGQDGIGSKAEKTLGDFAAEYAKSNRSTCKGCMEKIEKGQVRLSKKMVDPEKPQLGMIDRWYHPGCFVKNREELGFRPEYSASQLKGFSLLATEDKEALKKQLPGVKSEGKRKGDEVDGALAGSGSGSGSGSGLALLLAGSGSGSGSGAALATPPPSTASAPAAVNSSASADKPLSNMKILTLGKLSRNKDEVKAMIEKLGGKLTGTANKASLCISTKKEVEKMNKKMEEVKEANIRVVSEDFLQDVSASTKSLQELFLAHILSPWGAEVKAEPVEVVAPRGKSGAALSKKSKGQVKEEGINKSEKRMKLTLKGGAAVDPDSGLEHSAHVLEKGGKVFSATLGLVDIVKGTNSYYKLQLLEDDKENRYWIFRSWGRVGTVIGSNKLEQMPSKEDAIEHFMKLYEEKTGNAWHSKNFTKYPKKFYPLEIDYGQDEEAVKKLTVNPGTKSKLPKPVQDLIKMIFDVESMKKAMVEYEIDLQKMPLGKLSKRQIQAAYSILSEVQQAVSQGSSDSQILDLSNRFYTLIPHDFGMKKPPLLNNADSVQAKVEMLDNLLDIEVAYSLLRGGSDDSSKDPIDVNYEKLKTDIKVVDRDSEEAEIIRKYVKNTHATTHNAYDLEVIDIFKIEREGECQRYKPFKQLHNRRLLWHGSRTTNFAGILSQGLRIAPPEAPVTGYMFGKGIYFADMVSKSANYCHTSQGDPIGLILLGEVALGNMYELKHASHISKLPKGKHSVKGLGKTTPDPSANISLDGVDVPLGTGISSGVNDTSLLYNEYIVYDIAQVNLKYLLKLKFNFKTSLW
Sequence of PARP1 dZn1 (P09874 97-1014, stated change not applied): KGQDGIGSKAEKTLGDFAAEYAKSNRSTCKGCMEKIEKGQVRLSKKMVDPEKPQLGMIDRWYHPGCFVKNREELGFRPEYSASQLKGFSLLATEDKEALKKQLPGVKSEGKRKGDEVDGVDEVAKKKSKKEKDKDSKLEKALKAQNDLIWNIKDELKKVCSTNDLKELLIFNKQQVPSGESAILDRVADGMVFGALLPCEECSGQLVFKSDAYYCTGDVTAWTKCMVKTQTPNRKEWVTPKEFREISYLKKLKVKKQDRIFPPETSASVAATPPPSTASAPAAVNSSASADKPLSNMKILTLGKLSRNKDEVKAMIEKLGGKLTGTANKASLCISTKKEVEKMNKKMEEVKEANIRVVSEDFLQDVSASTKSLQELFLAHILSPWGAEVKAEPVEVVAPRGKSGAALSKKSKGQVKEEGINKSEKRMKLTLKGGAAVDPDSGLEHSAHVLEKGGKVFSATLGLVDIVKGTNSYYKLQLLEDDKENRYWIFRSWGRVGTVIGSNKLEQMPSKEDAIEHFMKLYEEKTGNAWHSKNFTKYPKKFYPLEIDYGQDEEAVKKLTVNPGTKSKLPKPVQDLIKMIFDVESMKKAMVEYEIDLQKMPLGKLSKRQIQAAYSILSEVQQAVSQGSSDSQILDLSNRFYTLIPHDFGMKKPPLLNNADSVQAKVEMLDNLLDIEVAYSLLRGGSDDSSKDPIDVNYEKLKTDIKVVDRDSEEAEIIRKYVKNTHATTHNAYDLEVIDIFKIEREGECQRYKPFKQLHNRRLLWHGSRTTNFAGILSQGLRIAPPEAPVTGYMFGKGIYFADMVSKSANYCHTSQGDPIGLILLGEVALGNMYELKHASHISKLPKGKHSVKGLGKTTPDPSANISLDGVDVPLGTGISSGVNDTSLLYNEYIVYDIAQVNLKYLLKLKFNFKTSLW
Sequence of PARP1 WT (P09874 whole entry): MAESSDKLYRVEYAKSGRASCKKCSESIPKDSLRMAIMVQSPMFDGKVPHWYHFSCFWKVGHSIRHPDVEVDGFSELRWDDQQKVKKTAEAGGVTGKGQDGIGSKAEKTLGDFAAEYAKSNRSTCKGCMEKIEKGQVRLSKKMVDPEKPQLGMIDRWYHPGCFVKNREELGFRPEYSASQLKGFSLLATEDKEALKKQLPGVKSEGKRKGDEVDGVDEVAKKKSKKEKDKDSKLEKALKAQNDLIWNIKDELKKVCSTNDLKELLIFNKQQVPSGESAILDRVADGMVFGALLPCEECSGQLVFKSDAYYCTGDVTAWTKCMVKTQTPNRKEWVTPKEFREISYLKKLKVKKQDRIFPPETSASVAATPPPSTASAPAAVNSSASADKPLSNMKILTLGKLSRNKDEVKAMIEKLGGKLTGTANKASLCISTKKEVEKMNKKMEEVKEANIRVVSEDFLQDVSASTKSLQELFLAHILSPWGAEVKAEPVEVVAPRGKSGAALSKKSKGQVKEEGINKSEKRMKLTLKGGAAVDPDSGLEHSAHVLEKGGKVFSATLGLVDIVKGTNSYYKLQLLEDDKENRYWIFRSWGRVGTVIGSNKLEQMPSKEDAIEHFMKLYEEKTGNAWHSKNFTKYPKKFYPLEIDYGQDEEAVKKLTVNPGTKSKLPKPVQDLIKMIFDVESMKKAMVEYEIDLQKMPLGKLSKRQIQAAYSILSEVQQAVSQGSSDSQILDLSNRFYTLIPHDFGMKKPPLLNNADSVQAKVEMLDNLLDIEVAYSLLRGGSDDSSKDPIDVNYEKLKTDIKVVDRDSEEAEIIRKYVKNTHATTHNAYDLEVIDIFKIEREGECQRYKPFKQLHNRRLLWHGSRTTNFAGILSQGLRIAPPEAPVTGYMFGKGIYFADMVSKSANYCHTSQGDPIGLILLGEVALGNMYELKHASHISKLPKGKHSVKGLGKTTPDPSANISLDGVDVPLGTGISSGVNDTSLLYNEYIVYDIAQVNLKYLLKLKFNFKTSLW

B1: p18mer* (labeled DSB model) (dsDNA)
DNA 1: GGGTTGCGGCCGCTTGGG
DNA 2: CCCAAGCGGCCGCAACCC
modifications: 5'-phosphate
As a reminder, the Kd is the free concentration of one partner at which half of the binding sites on the other are occupied at equilibrium, for simple one-to-one binding. On to B1, for which the binding result in the series with PARP1 dWGR, with PARP1 dZn3, in the series with PARP1 dZn1 and in the series with PARP1 dZn2 was “binds” throughout. The Kd with PARP1 WT is < 3 nM.

(Values after article PMC6135609, “Poly(ADP-ribose) polymerase 1 searches DNA via a ‘monkey bar’ mechanism”.)
